Measured values as given in US20240342305A1 (published 2024).

T1: recombinant human GPC1 (rhGPC1) (human, UniProt P35052 24-530, limits assumed)
T1 sequence (looked up): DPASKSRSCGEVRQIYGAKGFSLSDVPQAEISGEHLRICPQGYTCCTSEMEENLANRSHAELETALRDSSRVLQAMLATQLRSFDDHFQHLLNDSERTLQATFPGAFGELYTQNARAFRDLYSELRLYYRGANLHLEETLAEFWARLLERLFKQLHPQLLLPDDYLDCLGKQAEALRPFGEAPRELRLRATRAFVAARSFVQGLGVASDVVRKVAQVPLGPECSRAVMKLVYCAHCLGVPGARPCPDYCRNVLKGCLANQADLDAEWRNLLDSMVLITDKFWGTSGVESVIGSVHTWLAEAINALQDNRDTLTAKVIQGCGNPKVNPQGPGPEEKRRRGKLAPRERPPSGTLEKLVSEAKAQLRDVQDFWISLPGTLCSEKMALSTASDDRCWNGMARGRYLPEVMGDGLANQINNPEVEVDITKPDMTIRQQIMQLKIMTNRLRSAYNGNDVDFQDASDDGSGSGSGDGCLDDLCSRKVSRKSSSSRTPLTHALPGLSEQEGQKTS

T2: recombinant human GPC2 (rhGPC2) (human, UniProt Q8N158 24-554, limits assumed)
T2 sequence (looked up): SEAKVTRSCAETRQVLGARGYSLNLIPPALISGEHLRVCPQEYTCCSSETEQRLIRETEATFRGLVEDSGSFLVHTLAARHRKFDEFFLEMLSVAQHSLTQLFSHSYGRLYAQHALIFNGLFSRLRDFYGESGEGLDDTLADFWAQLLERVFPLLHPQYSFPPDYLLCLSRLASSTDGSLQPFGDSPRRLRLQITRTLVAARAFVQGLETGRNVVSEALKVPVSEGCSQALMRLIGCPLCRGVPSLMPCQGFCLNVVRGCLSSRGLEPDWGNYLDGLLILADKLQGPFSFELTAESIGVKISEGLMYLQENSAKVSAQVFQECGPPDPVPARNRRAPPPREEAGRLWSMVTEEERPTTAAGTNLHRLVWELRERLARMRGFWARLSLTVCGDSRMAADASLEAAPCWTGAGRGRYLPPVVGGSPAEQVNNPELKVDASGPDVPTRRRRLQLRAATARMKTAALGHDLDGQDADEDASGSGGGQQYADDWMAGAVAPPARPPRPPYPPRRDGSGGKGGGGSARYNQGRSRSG

T3: recombinant human GPC5 (rhGPC5) (human, UniProt P78333 25-551, limits assumed)
T3 sequence (looked up): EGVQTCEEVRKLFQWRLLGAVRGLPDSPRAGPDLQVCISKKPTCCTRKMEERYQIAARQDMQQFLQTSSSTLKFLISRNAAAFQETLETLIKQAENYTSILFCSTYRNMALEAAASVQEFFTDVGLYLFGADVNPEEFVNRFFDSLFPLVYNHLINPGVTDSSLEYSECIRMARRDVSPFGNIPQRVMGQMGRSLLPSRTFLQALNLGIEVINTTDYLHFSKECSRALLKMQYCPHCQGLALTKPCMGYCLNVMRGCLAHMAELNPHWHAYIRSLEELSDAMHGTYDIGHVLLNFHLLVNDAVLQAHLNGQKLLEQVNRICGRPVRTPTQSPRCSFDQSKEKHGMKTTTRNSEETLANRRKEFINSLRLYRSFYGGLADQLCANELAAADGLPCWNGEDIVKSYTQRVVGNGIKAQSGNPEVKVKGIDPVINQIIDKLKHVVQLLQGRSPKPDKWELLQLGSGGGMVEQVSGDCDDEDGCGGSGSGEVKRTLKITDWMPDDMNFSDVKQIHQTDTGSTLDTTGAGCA

T4: recombinant human GPC6 (rhGPC6) (human, UniProt Q9Y625 24-529, limits assumed)
T4 sequence (looked up): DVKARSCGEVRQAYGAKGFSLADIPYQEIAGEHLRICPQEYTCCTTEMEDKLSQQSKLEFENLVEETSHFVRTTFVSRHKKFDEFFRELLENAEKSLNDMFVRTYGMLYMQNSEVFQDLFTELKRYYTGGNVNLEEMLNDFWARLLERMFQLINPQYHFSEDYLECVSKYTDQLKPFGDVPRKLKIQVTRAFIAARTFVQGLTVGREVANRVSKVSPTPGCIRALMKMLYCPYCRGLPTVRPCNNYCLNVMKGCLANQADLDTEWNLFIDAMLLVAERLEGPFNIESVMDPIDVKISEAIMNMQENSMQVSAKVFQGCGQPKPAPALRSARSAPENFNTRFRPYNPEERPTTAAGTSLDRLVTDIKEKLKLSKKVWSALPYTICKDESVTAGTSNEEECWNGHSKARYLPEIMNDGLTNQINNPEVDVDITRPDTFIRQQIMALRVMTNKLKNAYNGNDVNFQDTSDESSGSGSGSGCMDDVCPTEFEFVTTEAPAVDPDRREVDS


Assays:
[1] = target: T1, recombinant human GPC1 (rhGPC1); assay: ELISA, antigen coated 100 ng/well, HRP anti-human Fc detection
Description: (§1) In order to analyze the binding specificity of P7D4 series antibody to GPC3 protein, binding activity of P7D4 series single chain antibody to human GPC family members, including recombinant human GPC1 (rhGPC1), GPC2 (rhGPC2), GPC3 (rhGPC3), GPC5 (rhGPC5) and GPC6 (rhGPC6) (purchased from Andy Biosciences (Shanghai) Co., Ltd.) was detected by ELISA, respectively.
(§2) For this purpose, the above 5 antigens were diluted with 0.1 M NaHCO₃ (pH 9.6) coating solution and each well was coated with 100 ng at 50 μl/well overnight at 4° C. and blocked with 2% (w/v) BSA in PBST for 2 hours at room temperature. The plate was then rinsed for three times with PBST and PBST was removed. Subsequently, 100 ng of each antibody protein in PBST was added to each well plate, and the assay for each sample was performed in duplecate wells. After incubated for 2 hours at 37° C., the plates were rinsed for three times with PBST followed by addition of 100 μl/well HRP-labeled rabbit anti-human Fc antibody (purchased from Shanghai Rui Jin Biotechnology Co., Ltd.) diluted at 1:20000 and incubated at 37° C. for 1 hour. For detection, wells were rinsed for three times with PBST followed by three times with PBS and finally with TMB for development for 10 min. The chromogenic reaction was stopped with 50 μl of 2 M H₂SO₄ per well, and extinction value was measured at 450 nm with enzyme-linked immunodetector (Bio-Rad).

[2] = target: T2, recombinant human GPC2 (rhGPC2); assay: as above
Description: as §1, §2

[3] = target: T3, recombinant human GPC5 (rhGPC5); assay: as above
Description: as §1, §2

[4] = target: T4, recombinant human GPC6 (rhGPC6); assay: as above
Description: as §1, §2

[5] = target: T5, human GPC3 recombinant protein (purchased from Shanghai Rui Jin Biotechnology Co., Ltd.) (human, UniProt P51654 25-559, limits assumed); assay: SPR Biacore T200, antibody captured by anti-human IgG (Fc), GPC3 as analyte, single-cycle kinetics, 25 °C
T5 construct: Bought recombinant protein; also called huGPC3; antigen GPC3
Description: To quantitatively analyze the binding of P7D4 series antibodies to GPC3, the affinity and kinetic parameters of P7D4 series single-chain antibodies were measured by capture method using Biacore T200 system (from GE). An anti-human IgG (Fc) antibody (purchased from GE) was coupled to carboxymethyl dextran surface of sensor chip CM5 through primary amino with NHS/EDC coupling according to the manufacturer's instructions. Measurements were performed in 1×HBS-EP+working buffer at 25° C., 30 μl/min, and regeneration condition was 3 M MgCl₂, 10 μl/min for 30 seconds. In each round of the testing cycle, the antibody to be tested is firstly captured onto the chip. GPC3 of a certain concentration flowed over the chip surface. The interaction between human GPC3 and the captured antibody caused the change of the molecular concentration on the surface of the sensor chip which was measured according to changes in SPR Signal and expressed in resonance units (RU). Time vs resonance unit (RU) was plotted. The resulting sensorgram documents the entire reaction including the binding and dissociation processes (FIG. 4). In all single-cycle kinetics, GPC3 concentrations were 5 nM, 10 nM, 20 nM, 40 nM and 80 nM, respectively. The resulting curves were evaluated using Biacore T200 evaluation software and the affinity KD values were calculated.

Binder | Kd [5] [nM] | koff [5] [s⁻¹] | kon [5] [M⁻¹ s⁻¹] | binding result [1] | binding result [2] | binding result [3] | binding result [4]
P7D4 mutant single chain antibody am4 (scFv, not shown: a dimerising Fc or GST) scFv: QVQLQESGGGLVQPGRSLRLSCAASGFTFSTYAMTWVRQAPGKGLEWVSSISSSGESTYYADSVKGRFTISRDNSKNTLYLQMNSLRAEDTAVYYCAKDRRGSHADAFDVWGQGTLVTVSSGGGGSGGGGSGGGGSQSALTQPPSASGSPGQSVTISCTGTSSDVGGYNYVSWYQQYPGKAPKLLIYGNSNRPSGVPDRFSGSKSGTSASLAITGLQAEDGADYYCQSYDSSLRVVFGGGTKVTVLG | 0.0756 | 4.08e-05 | 539000 | no binding (tested: 100 ng of each antibody protein per well) | no binding (tested: 100 ng of each antibody protein per well) | no binding (tested: 100 ng of each antibody protein per well) | no binding (tested: 100 ng of each antibody protein per well)
P7D4 mutant single chain antibody T2-23 (scFv, not shown: a dimerising Fc or GST) scFv: QVQLQESGGGLVQPGRSLRLSCAASGFTFSSYAMHWVRQAPGKGLEWVSAISSSGRSTYYADSVEGRFTISRDNSKNTLYLQMNSLRAEDTAVYYCAKDRRGSHADALNVWGQGTLVTVSSGGGGSGGGGSGGGGSQSALTQPPSASGSPGQSVTISCTGTSSDVGGYNYVSWYQQYPGKAPKLLIYGNSNRPSGVPDRFSGSKSGTSASLAITGLQAEDGADYYCQSYDSSLRVVFGGGTKVTVLG |  |  |  | no binding (tested: 100 ng of each antibody protein per well) | no binding (tested: 100 ng of each antibody protein per well) | no binding (tested: 100 ng of each antibody protein per well) | no binding (tested: 100 ng of each antibody protein per well)
P7D4 mutant single chain antibody am20 (scFv, not shown: a dimerising Fc or GST) scFv: QVQLQESGGGLVQPGRSLRLSCAASGFTFSTYAMNWVRQAPGKGLEWVSAISMSGESTYYADSVKGRFTISRDNSKNTLYLQMNSLRAEDTAVYYCAKDRRGSHADAFDVWGQGTLVTVSSGGGGSGGGGSGGGGSQSALTQPPSASGSPGQSVTISCTGTSSDVGGYNYVSWYQQYPGKAPKLLIYGNSNRPSGVPDRFSGSKSGTSASLAITGLQAEDGADYYCQSYDSSLRVVFGGGTKVTVLG | 0.306 | 6.47e-05 | 212000 | no binding (tested: 100 ng of each antibody protein per well) | no binding (tested: 100 ng of each antibody protein per well) | no binding (tested: 100 ng of each antibody protein per well) | no binding (tested: 100 ng of each antibody protein per well)

The next lines start with results.

Kd [5] [nM] | koff [5] [s⁻¹] | kon [5] [M⁻¹ s⁻¹] | Binder | binding result [1] | binding result [2] | binding result [3] | binding result [4]
0.0646 | 4.43e-05 | 673000 | P7D4 mutant single chain antibody am14 (scFv, not shown: a dimerising Fc or GST) scFv: QVQLQESGGGLVQPGRSLRLSCAASGFTFSTYAMAWVRQAPGKGLEWVSEISSSGSRTYYADSVKGRFTISRDNSKNTLYLQMNSLRAEDTAVYYCAKDRRGSHADAFDVWGQGTLVTVSSGGGGSGGGGSGGGGSQSALTQPPSASGSPGQSVTISCTGTSSDVGGYNYVSWYQQYPGKAPKLLIYGNSNRPSGVPDRFSGSKSGTSASLAITGLQAEDGADYYCQSYDSSLRVVFGGGTKVTVLG | no binding (tested: 100 ng of each antibody protein per well) | no binding (tested: 100 ng of each antibody protein per well) | no binding (tested: 100 ng of each antibody protein per well) | no binding (tested: 100 ng of each antibody protein per well)
0.0714 | 5.2e-05 | 738000 | P7D4 mutant single chain antibody am35 (scFv, not shown: a dimerising Fc or GST) scFv: QVQLQESGGGLVQPGRSLRLSCAASGFTFSSYAMHWVRQAPGKGLEWVSAISSSGGSTYYADSVKGRFTISRDNSKNTLYLQMNSLRAEDTAVYYCAKDRRGSHADAFDVWGQGTLVTVSSGGGGSGGGGSGGGGSQSALTQPPSASGSPGQSVTISCTGTSSDVGHKFPVSWYQQYPGKAPKLLIYKNLLRPSGVPDRFSGSKSGTSASLAITGLQAEDGADYYCQSYDSSLRVVFGGGTKVTVLG | no binding (tested: 100 ng of each antibody protein per well) | no binding (tested: 100 ng of each antibody protein per well) | no binding (tested: 100 ng of each antibody protein per well) | no binding (tested: 100 ng of each antibody protein per well)
